Reference: the RNAGym collection of RNA variant scans (doi:10.7554/elife.80360)

B1: Twister Ribozyme (parent)
chain: AACACUGCCAAUGCCGGUCCCAAGCCCGGAUAAAAGUGGAGGGGGCGG

Variants of: B1
Experiment: self-cleavage, relative activity (ratio to wild type); higher = more cleavage; co-transcriptional

Variant	self-cleavage
C27G G29U	0.0759
G28U U31G	0.992
A30G G43U	0.498
C27U C46A	0.825
G29C G36U	0.106
G28C G43U	0.17
C27G C46U	0.105
C27G C46A	0.0878
C27G G28A	0.0984
C27G G28U	0.0803
C27G G28C	0.216
A30C G47U	0.48
A30C G47A	0.577
G28U G44C	0.782
G28U G44U	0.879
C27A G38A	0.241
C27A G38C	0.573
C27A G38U	0.33
A30U A33C	0.847
G28U A33U	0.833
G28U A33C	0.838
G28U A33G	0.979
G29A A33G	0.845
C27G G43A	0.0971

Variant	self-cleavage
C27G G43C	0.0881
C27G G43U	0.0926
C27G A30G	0.0912
C27G A30C	0.105
G29A G44C	0.803
G29A G44A	0.738
G29A G44U	0.922
G29U	0.937
G29C	0.858
G29A	0.915
C27A G28A	0.423
G28C G47C	0.254
C27A G42A	0.0939
C27U G43A	0.211
C27U G43U	0.219
G29U U37C	0.444
G29U U37A	0.512
G29U G43C	0.19
G29U G43A	0.23
C27A G45U	0.207
C27A G45A	0.334
G29U A32C	0.836
C27G G42C	0.082
C27G G42A	0.0529

Variant	self-cleavage
G28A C46A	0.682
G28A C46G	0.864
G28A G47U	0.576
G28A G47A	0.545
G28A G47C	0.283
G29A G47C	0.347
G29A G47U	0.765
G29A G47A	0.689
G29A G45C	0.249
G28C A33G	0.83
G28C A33C	0.745
C27G U31C	0.072
G28A A34G	0.606
G28A A34C	0.175
G28A U31C	0.835
G28U G41C	0.263
G28U G41A	0.459
G28C A34G	0.491
G28C A34C	0.154
G28C G36C	0.173
G28C G36A	0.292
G28C G38A	0.743
A30C U31C	0.841
A30C U31A	0.687

Variant	self-cleavage
G28A G42U	0.261
G29U U31G	0.92
G29U U31C	0.972
G29C A34G	0.214
G29C A34C	0.148
G28C U31G	0.739
G28C U31A	0.814
G28C U31C	0.938
C27G G36A	0.0994
C27G G36U	0.0875
G29C G42U	0.129
G29C G42A	0.11
G29C G42C	0.174
G28U G38A	0.763
G28U G38C	0.676
G28C G45C	0.155
G28C G45U	0.349
A30G U37A	0.901
A30G U37C	0.486
A30G G36U	0.32
G28U G29C	0.928
G28U G29A	0.947
A30C U37G	0.306
C27U G44C	0.777

Variant	self-cleavage
C27U G44A	0.84
A30U A34G	0.937
G29A A34G	0.684
C27G G39A	0.0704
C27G G39U	0.123
G29U G36U	0.212
G29U G36C	0.319
G28A A30U	0.844
G28A A30G	0.938
G28A A30C	0.935
G28U G47A	0.374
G28U G47U	0.567
A30C G48A	0.576
G28U G36C	0.232
G28U G36A	0.388
G28U A30G	0.999
G28U A30C	0.968
A30C C46A	0.612
A30C C46U	0.798
A30C C46G	0.647
G29A U37A	0.569
G29A U37G	0.395
G28U A35U	0.888
G28U A35G	0.584

Variant	self-cleavage
G29C U37C	0.182
G29C U37A	0.259
G29C U37G	0.4
G28C A40U	0.17
C27G	0.0872
C27U	0.876
G29U G42A	0.224
G29U G39C	0.116
G29U G39U	0.223
G29U G39A	0.417
G29U A35C	0.892
G29U A35G	0.786
A30G G44C	1.02
A30G G44U	0.887
G29A G48A	0.874
G28C G29U	0.98
G28C G29C	0.865
G29A G36C	0.246
G29A G36A	0.458
C27G G47C	0.0485
C27G G47A	0.0917
C27G G47U	0.0917
A30G A40G	0.187
G29U A40C	0.208

Variant	self-cleavage
G29U A40U	0.145
G29U A40G	0.167
C27A G48C	0.563
G29C U31A	1
G29C U31G	0.851
G29U G38U	0.666
A30G G47U	0.877
A30G G47A	0.817
C27U G28U	0.501
C27U G28C	0.568
G28A A32G	0.835
G28A A32U	0.817
G28A A32C	0.941
G28C G41U	0.332
G28C G41A	0.408
G28C G41C	0.217
A30C G41U	0.156
A30C G41C	0.124
A30C G41A	0.133
G29C G41C	0.0927
G29C A32U	0.443
G29C A30C	0.971
G28U C46A	0.778
